± gives the standard deviation of the averaged measurements.
System: ATP
Experiment: switch fluorescence ratio, 500 uM ATP over buffer (Cy3 cluster intensity, sum of 5 cycles each) (fold (ratio)); higher = stronger signal-on switching upon ATP binding; sequences stand for … in TCGTCGGCAGCGTCAGATGTGTATAAGAGACAGTTTTTTTTTTTTTTTTTTTTTTTTT…TC
Settings: aptamer strand: ATP DNA aptamer (quencher-CACCTGGGGGAGTATTGCGGAGGAAGG + anchor), 100 nM annealed; ATP concentration: 500 uM
Outline: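 Exposure to 500 uM ATP lasted 15 min at 22 °C before imaging, and a selection-buffer image was taken beforehand, for Cy3-labelled switching-strand clusters on a modified Illumina MiSeq flow-cell annealed to 100 nM quencher-labelled ATP aptamer. Five buffer/ATP cycles were run with NaOH stripping and re-annealing between them. The fluorescence ratio per cluster is summed target-cycle over summed buffer-cycle Cy3 intensity, averaged per switch-domain sequence. Clusters outside 100-1000 RFU were excluded.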

Row | Sequence | switch fluorescence ratio
1 | TCTCCCGGCA | 1.34 ± 0.2
2 | TCTCCCTTGT | 1.03 ± 0.024
3 | TCTCCTTTTT | 1.02 ± 0.053
4 | TCTCGAGGGA | 0.981 ± 0.01
5 | TCTCGGAAGA | 1.01 ± 0.022
6 | TCTCGGGATT | 1 ± 0.013
7 | TCTCGTAACT | 1 ± 0.044
8 | TCTCTACTGG | 1.03 ± 0.058
9 | TCTCTTATGT | 0.985 ± 0.033
10 | TCTCTTCAGC | 1 ± 0.0026
11 | TCTCTTGCGG | 1.1 ± 0.2
12 | TCTGAAAAAG | 2.29 ± 1.9
13 | TCTGAAGATC | 1.06 ± 0.065
14 | TCTGACAGTT | 1.04 ± 0.029
15 | TCTGAGAGAG | 0.9823 ± 0.0032
16 | TCTGAGATAA | 1.0208 ± 0.00085
17 | TCTGAGTCCA | 1.032 ± 0.0022
18 | TCTGAGTTCA | 0.987 ± 0.019
19 | TCTGATTATG | 0.987 ± 0.011
20 | TCTGATTTGG | 0.978 ± 0.028
21 | TCTGCATGGT | 1.07 ± 0.013
22 | TCTGCCCCCC | 1.12 ± 0.042
23 | TCTGCTCTGG | 0.983 ± 0.03
24 | TCTGCTTGGG | 1.09 ± 0.13
25 | TCTGGAATTG | 1.01 ± 0.03

Row | Sequence | switch fluorescence ratio
26 | TCTGGACATT | 1.01 ± 0.023
27 | TCTGGGAGGG | 1.03 ± 0.047
28 | TCTGGGCCAT | 1.29 ± 0.43
29 | TCTGGGCTTG | 0.999 ± 0.015
30 | TCTGGGGCTT | 1.0237 ± 0.00017
31 | TCTGGGGGAC | 1.05 ± 0.015
32 | TCTGGGGGGT | 1.02 ± 0.035
33 | TCTGGGGGTT | 1.02 ± 0.054
34 | TCTGGGTGGC | 0.996 ± 0.028
35 | TCTGGGTTAT | 0.988 ± 0.033
36 | TCTGGTTGGA | 1.04 ± 0.025
37 | TCTGTAGCGG | 1.13 ± 0.037
38 | TCTGTATACA | 0.989 ± 0.037
39 | TCTGTCTAGT | 1.01 ± 0.02
40 | TCTGTGAGTG | 0.973 ± 0.014
41 | TCTGTGCATA | 1.52 ± 0.1
42 | TCTGTGGCCC | 1.01 ± 0.028
43 | TCTGTGGGGA | 1.04 ± 0.045
44 | TCTGTGTATT | 1.03 ± 0.037
45 | TCTGTTCA | 1.005 ± 0.0075
46 | TCTGTTTACG | 0.996 ± 0.016
47 | TCTGTTTTAT | 0.976 ± 0.017
48 | TCTTAAAATT | 1.012 ± 0.0091
49 | TCTTAAAGAT | 1.06 ± 0.022
50 | TCTTAAAGGT | 0.986 ± 0.026

Row | Sequence | switch fluorescence ratio
51 | TCTTAAGTGC | 1.07 ± 0.026
52 | TCTTACGCCA | 1.06 ± 0.016
53 | TCTTATGCTC | 0.98 ± 0.022
54 | TCTTCCGGTG | 1.68 ± 0.045
55 | TCTTCCTAGA | 1.031 ± 0.01
56 | TCTTCGGAGT | 1.03 ± 0.058
57 | TCTTCGGGGG | 1.07 ± 0.032
58 | TCTTGAATAA | 0.9856 ± 0.0072
59 | TCTTGAGCAT | 1.34 ± 0.13
60 | TCTTGAGGGA | 1 ± 0.02
61 | TCTTGATGGA | 0.9597 ± 0.0014
62 | TCTTGCATAG | 1.11 ± 0.025
63 | TCTTGGAACG | 0.998 ± 0.015
64 | TCTTGGACGA | 0.991 ± 0.025
65 | TCTTGGGCAT | 1.01 ± 0.04
66 | TCTTGGGGAG | 0.9815 ± 0.0083
67 | TCTTGGTTTC | 0.997 ± 0.013
68 | TCTTGTAAGT | 0.992 ± 0.023
69 | TCTTGTATAA | 0.9758 ± 0.0029
70 | TCTTGTATAG | 0.966 ± 0.032
71 | TCTTGTTATT | 0.9985 ± 0.0054
72 | TCTTGTTGGG | 1.01 ± 0.023
73 | TCTTGTTTTT | 0.977 ± 0.022
74 | TCTTTAATGG | 1.01 ± 0.042
75 | TCTTTATACT | 1.05 ± 0.034

Row | Sequence | switch fluorescence ratio
76 | TCTTTATCCC | 1.18 ± 0.084
77 | TCTTTCATGT | 1.02 ± 0.02
78 | TCTTTGAAGT | 1 ± 0.019
79 | TCTTTGGGAC | 0.994 ± 0.028
80 | TCTTTTGGGG | 1.03 ± 0.024
81 | TCTTTTTTAG | 0.998 ± 0.036
82 | TCTTTTTTTA | 1.02 ± 0.06
83 | TCTTTTTTTT | 1 ± 0.041
84 | TGAAAACACG | 1.17 ± 0.22
85 | TGAAAATCGG | 0.965 ± 0.02
86 | TGAAACCACT | 1.1 ± 0.013
87 | TGAAACGCTG | 1.06 ± 0.04
88 | TGAAAGCCGG | 0.965 ± 0.045
89 | TGAAAGCGCC | 1.07 ± 0.03
90 | TGAAAGTGGA | 1.05 ± 0.034
91 | TGAAATAGGT | 0.99 ± 0.036
92 | TGAAATATGT | 0.987 ± 0.04
93 | TGAAATTTTA | 0.9926 ± 0.006
94 | TGAAATTTTT | 0.982 ± 0.029
95 | TGAACGACGG | 1.02 ± 0.073
96 | TGAACGGGCC | 1.036 ± 0.00055
97 | TGAACTGTTC | 1.04 ± 0.069
98 | TGAAGACTGA | 1 ± 0.012
99 | TGAAGATAAC | 1.02 ± 0.026
100 | TGAAGCCAGT | 1 ± 0.024
